Experimental data reported in the nanobody polyreactivity screen of Harvey et al. (2022).

Experiment: yeast display, Sf9 membrane polyspecificity reagent, FACS + sequencing; frameworks hold sequencing errors
How it was run: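 Synthetic nanobody libraries on Saccharomyces cerevisiae BJ5465 were galactose-induced for 36–48 hours, stained 1 hour at 4 °C with 10% biotinylated, detergent-solubilized Sf9 membrane reagent and enriched on streptavidin microbeads. FACS then separated cells into low and high (top ~1%) gates by anti-HA (expression) and streptavidin (reagent binding) fluorescence. Genes were colony-PCR amplified, MiSeq 2 × 250 sequenced and CDR-length filtered. A clone's polyreactivity label is that of its gate of origin.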
In the case of “QVQLVESGGGLLQAGGSLRLSCAASGFIFVDNAMGWYRQAPGKERELVAAITSGASTYYADSVKGRFTISRDNAKNTVYLQMNSLKPEDTAVYYCAADYLYYYTWYNYWGQGTQVTVSS”, the “polyreactivity (PSR sort gate)” value is reported as “low polyreactivity”. For “QVQLVESGGGLLQAGGSLRLSCAASGFILNSYAMGWYRQAPGKERELVAAITRSGGNTFYADSVKGRFKISRDNAKNTVYLQMNSLQPEDTAVYYCYAYFTYWSQLYYWGQGTQVTVSS”, the “polyreactivity (PSR sort gate)” value was “high polyreactivity”. In the case of “QVQLVESGGGLLQAGGSLRLSCAASGFTFHKNAMGWYRQAPGKERELVAAISRSGGRTYYADSVKGRFTISRDNAKNTVYLQMNSLKPEDTAVYYCNATPLLWAGYDYWGQGTQVTVSS”, the “polyreactivity (PSR sort gate)” value is reported as “high polyreactivity”. In the case of “QVQLVESGGGLLQAGGSLRLSCAASGFTFRNYAMGWYRQAPGKEREFVAAITGRGGSTYYADSVKGRFTISRDNAKNTVYLQMNSLKPEDTAVYYCNAYSGVSFYSSWYGYWGQGTQVTVSS”, the “polyreactivity (PSR sort gate)” value is reported as “high polyreactivity”. For “QVQLVESGGGLLQAGGSLRLSCAASGFTFRPYAMGLYRQAPGKERELVAAIDYSGGSTSYADSVKGRFTISRDNAKNTVYLQLNSLKPEDTAVFSCATDYPLSWSPLYDYDYWGQGTQVTVSS”, the “polyreactivity (PSR sort gate)” value was “low polyreactivity”. With “QVQLVESGGGLLQAGGSLRLSCAASGFTFSRYAMGWYRQAPRKEMELVATISRSGGTTYYADSVKGRFTISRDNAKNTVYLLMNSLKPEDTAVYYGNTDKIWGLQYYYWGQGTQVTVSS” the “polyreactivity (PSR sort gate)” value was “high polyreactivity”. In the case of “QVQLVESGGGLLQAGGSLRLSCAASGFTIYRYAMGWYRQATGKERELVAAITGGGGSTYYADSVKGRFTISRDNAKNTVYLQMNSLKPEDTAVYYCAVDVYHIGQYRWSYGYWGQGTQVTVSS”, the “polyreactivity (PSR sort gate)” value is reported as “low polyreactivity”. For “QVQLVESGGGLLQAGGSLRLSCAASGGIFQGNVMGWYRQAPGKERELVASIRRGGSTNYADSVKGRFTISRDNAKNTVYLQMNSLKPEDTAVYYCAARKWVGYHVWPLREYNYWGQGTQVTVSS”, the “polyreactivity (PSR sort gate)” value was “low polyreactivity”. In the case of “QVQLVESGGGLLQAGGSLRLSCAASGINFSKYAMGWYRQAPGTERELVAVISASGGGTYYADSVKGRFTISRDNAKNTVYLQMNSLKPEDTAVYFCAADSSDVYDYWGQGTQVTVSS”, the “polyreactivity (PSR sort gate)” value is reported as “high polyreactivity”. In the case of “QVQLVESGGGLLQAGGSLRLSCAASGRIFDRNAMGWYRQAPGKERELVATISSGDTTDYADSVKGRFTISRDNAKNTVYLQMNSLKPEDTAVYYITIYNYWGQGTQVTVSS”, the “polyreactivity (PSR sort gate)” value is reported as “low polyreactivity”. For “QVQLVESGGGLLQAGGSLRLSCAASGRIFSTNAMGWYRQAPGKERELVAAITNGGNTNYADSVKGRFTISRDNAKITVYLQMNSLKQEDTAVYYCAKAVAYSWVDGYGYEYWGQGTQVTVSS”, the “polyreactivity (PSR sort gate)” value was “low polyreactivity”. In the case of “QVQLVESGGGLLQAGGSLRLSCAASGRIFVVYAMGWYRQAPGKERELVASITWRGGSTYYADSVKGRFTISRDNAKNTVYLQMNSLKPEDTAVYYCAAELDVYVSIGSRFHFDYWGQGTQVTVSS”, the “polyreactivity (PSR sort gate)” value is reported as “low polyreactivity”. In the case of “QVQLVESGGGLLQAGGSLRLSCAASGRTFAYNAMAWYRQAPGKERELVAAITDSDGNTYYADSVKGRFTISRDNAKNTVYLLMNSLKPEDTAVYYCAADYIILDHVTRGFVYEYWGQGTQVTVSS”, the “polyreactivity (PSR sort gate)” value is reported as “low polyreactivity”. With “QVQLVESGGGLLQAGGSLRLSCAASGRTFHLYAMGWYRQAPGKERELVAAIRGRSGSTYYADSVKGRFTISRDNAKNTVYLQMNSLKPEDTAVYYCAVGRYPYGSARYRFDYWGQGTQVTVSS” the “polyreactivity (PSR sort gate)” value was “high polyreactivity”. For “QVQLVESGGGLLQAGGSLRLSCAASGRTSVRYAMGWYRQAPGKERELVAAISWSGGSTYYADSVKGRFTISRDHAKNTVYLQMNCLKPEDTAVYYCNAQHARGYYYWGQGTQVTVSS”, the “polyreactivity (PSR sort gate)” value was “low polyreactivity”. With “QVQLVESGGGLLQAGGSLRLSCAASGRTYVWNAMGWSRQAPGKERELVAGISWRGGSTYYADSVKGRFRISRDNAKNTVYLQKNSLKPEDTAVYYFAASARFVTYKMYYWGQGTQVTVSS” the “polyreactivity (PSR sort gate)” value was “high polyreactivity”. With “QVQLVESGGGLLQAGGSLRLSCAASGSIFRLNAMGWYRQAPGKERELVATINYSGDSTYYADSVKGRFTISRDNAKNTVYLQMNSLKPEDTAVYFCATDYGWYDYWGQGTQVTVSS” the “polyreactivity (PSR sort gate)” value was “low polyreactivity”. With “QVQLVESGGGLLQAGGSLRLSCAASGSIFRYYAMGWYRQAPGKERELVATISTGGRTYYADSVKGRFTISRDNAKNTVYLQMNSLKPEVTAVYYCAAVRLTWTAKYNYWGQGTQVTVSS” the “polyreactivity (PSR sort gate)” value was “high polyreactivity”. For “QVQLVESGGGLLQAGGSLRLSCAASGSIFYRYAMGWYRQAPWKERELVAAISRSGASTYYADSVKGRFTISRDNAKNTVYLQMNSLKPEDTAVYYCAAYFATSRLPVRYDYWGQGTQVTVSS”, the “polyreactivity (PSR sort gate)” value was “high polyreactivity”. With “QVQLVESGGGLLQAGGSLRLSCAASGSILYWNAMGWYRQAPGKERELVAAITGSGGSTSYADSVKGRFTISRDNAKNTVYLQMNSLKPEDTAVYYCAALQFPTPLLLYDSWGQGTQVTVSS” the “polyreactivity (PSR sort gate)” value was “low polyreactivity”. With “QVQLVESGGGLLQAGGSLRLSCAASGSTFKGYAMGWYRQAPGKERELVAAISWSAGSTYYADSVKGRFTISRDNAKNTVYLQMNSLKPEDTAVYYCAKASVALRYYSYSLGRDYWGQGTQVTVSS” the “polyreactivity (PSR sort gate)” value was “low polyreactivity”. For “QVQLVESGGGLLQAGGSLRLSCAASGSTFQWYAMGWYRQAPGKERELVAGITRTGSTYYADSVKGRFTISRDNAKNTVYLQMNSLKPEDTAVYYCAAKWHTASGKYYYWGQGTQVTVSS”, the “polyreactivity (PSR sort gate)” value was “high polyreactivity”. In the case of “QVQLVESGGGLLQAGGSLRLSCAASGSTYFGNAMGWDRQAPGKERELVAAITSGGSTNYADSVKGRFTISRDNAKNTVYLQMNSLKPEDTAVYYCAKPSRWGWTGFYAYDYWGQGTQVTVSS”, the “polyreactivity (PSR sort gate)” value is reported as “low polyreactivity”. In the case of “QVQLVESGGGLLQAGGSLRLSCAASGVIFSWYAMGWYRQAPGKERELVAAINWSGDSTYYADSVKGRFTISRDNAKNTVYLQMNSLKPEDTAVYYCAADPSYWGDPYDYWGQGTQVTVSS”, the “polyreactivity (PSR sort gate)” value is reported as “high polyreactivity”. In the case of “QVQLVESGGGLLQAGGSLRLSCAASVNIFWRYRMGWYRQAPGKERELVAAIRRSGGTTYYADSVKGRFTISRDNAKNTVYFQMNSLKPEDTAVYNCAAGLTVRKFVRFDYWGHGTQVTVSS”, the “polyreactivity (PSR sort gate)” value is reported as “low polyreactivity”. In the case of “QVQLVESGGGLLQAGGSLRLSCASSGITFGDNVMGWYRQAPGKERELVAAISRIGDDTYYADSVKGRFTISRDNAKNTVFFQMNSLKPEDTAVYYCATDFTQRDYYNYGYWGQRTQVTVSS”, the “polyreactivity (PSR sort gate)” value is reported as “low polyreactivity”. With “QVQLVESGGGLLQAGGSLRLSCASSGSTFYTNDMGWYRPAPGKERELVAAITSAGNTNYADSVKGRFTISRDNAKNTVYLQMNSLKPEDTAVYYYYYYQYDYWGQGTQVTVSS” the “polyreactivity (PSR sort gate)” value was “low polyreactivity”. For “QVQLVESGGGLLQAGGTLRLSCAASGITFWSYAMGWYRQAPGKERELVAAITIGGTTYYADSVKGRFTSSRDNAKNTVYLQMNSRKPEDTAVYYCAVDSTDQAPPTYDYWGQGTQVTVSS”, the “polyreactivity (PSR sort gate)” value was “low polyreactivity”. With “QVQLVESGGGLVEAAGSLRLSCAASGRILCGNTMGWYRQATGKERELFAAISWNGGGTYYADSVKGRFTISRDTAKNNVYLQMNSLTPEDTAVYYCATRYTYSTDTGYDYWGQGTQVTVSS” the “polyreactivity (PSR sort gate)” value was “low polyreactivity”. With “QVQLVESGGGLVEAGGSLRLICAAAGSNFSYYAMGWYRQAPGKERELVAAISWNGGRTYYADSVKGRFTISRDNAKYSVYLQMNSLKPEDTAVYYCAARSSYKFYYWGQRTQVTVSS” the “polyreactivity (PSR sort gate)” value was “high polyreactivity”. With “QVQLVESGGGLVEAGGSLRLSCAASGIIFYGYDMGWYREAPGKERELVAGITVSGGTYYADSVKGRFTISRDNAKNTVYLQMNSLKPEDTAVYYSARDQWPYVHGKYAYWGQGTQVTVSS” the “polyreactivity (PSR sort gate)” value was “low polyreactivity”. In the case of “QVQLVESGGGLVEAGGSLRLSCAASGRIFCYNAMGWYRQAPGKERELVAAIRSGGRTHYADSVKGRFTISRDNAKNTVTLQMNSLKPEDTAVYYCAARSVPYPYRRNPYDYWGQGTQVTVSS”, the “polyreactivity (PSR sort gate)” value is reported as “high polyreactivity”. In the case of “QVQLVESGGGLVEAGGSLRLSCAASGRIFTGYAMGWYRQAPGKERELVAAISDGGSTNYADSVKGRFTISRDNAKNTVYLQMNSLKPEDTAVYYCAADGHSSDQYDYWGPGTQVTVSS”, the “polyreactivity (PSR sort gate)” value is reported as “low polyreactivity”. In the case of “QVQLVESGGGLVEAGGSLRLSCAASGSIFRINAMGWYRQAPGKERELVAAISTLSGRTYYADSVKGRFTISRDNAKITVYLQMNSLKPEDTAVYYCAVGQARAGLIGGYWGQGTQVTVSS”, the “polyreactivity (PSR sort gate)” value is reported as “high polyreactivity”. For “QVQLVESGGGLVEAGGSLRLTCAASGYIIGGNAMGWYRQAPGKERELVAVISSRGGRTYYSDSVKGRFTISRDNAKNTVYLQLNSLKPEDTEVYYCYRVFSYQYKRDYWGQGTQVTVSS”, the “polyreactivity (PSR sort gate)” value was “high polyreactivity”. In the case of “QVQLVESGGGLVEAGGSLSLTCAASGRPFQYYAMRWYRPAPGKEREFVAAITRTGARTYYAVSVKGRFTISRDNAKNTVYLQMNSLKPEATAVYYCAKSLTFYSWRDYGYWGQGTQVTVSS”, the “polyreactivity (PSR sort gate)” value is reported as “high polyreactivity”. With “QVQLVESGGGLVHAGCSLRLSCAASGNIFYAYAMGWYRQAPGKERELVAAISWSGDSTYYADSVKGRFTISRDNAKNTVYLQMNSLKPEDTAVYYCAARKVTYHYQWMDYWGQGSQVTVSS” the “polyreactivity (PSR sort gate)” value was “low polyreactivity”. In the case of “QVQLVESGGGLVHAGCSLRLSCAASGSTYVPYAMGWYRQAPGRERELVADISWSGGSTYYADSVKGRFTISRDNGKNTVFLQMNSLKPEDTAVYYCAATRTKGKFDYWGQGTQVTVSS”, the “polyreactivity (PSR sort gate)” value is reported as “high polyreactivity”. In the case of “QVQLVESGGGLVHAGGCLRISCAASGRIFWYNEMGWYRQATGKERELVADITPRGTRTHYADSVKGRFTISRDNAKNTVYLQMNSLKPEDPGVYYCAKGWYTVDWDAPVFSERGEYWGQGSQVTVSS”, the “polyreactivity (PSR sort gate)” value is reported as “low polyreactivity”. For “QVQLVESGGGLVHAGGILRLSCAASGFIFWSYAKGWYRQAPGKERELFAAIDLSGGSTYYADSVKGRFTISRDNAKNTVYLQLNSLKPEDTAVYYCNADGDTYAFTNSDSGFDYWGQGTQVTVSS”, the “polyreactivity (PSR sort gate)” value was “low polyreactivity”. In the case of “QVQLVESGGGLVHAGGILRLSSPASGSTIRYYAMGWYRQAPGKESQLVAVISTSGNTYYADSVKGRFTISRDNAKNTVYLQMNSLKPEDTAVYYCAARGVGGQISQEYDYWGQGTQVTVSS”, the “polyreactivity (PSR sort gate)” value is reported as “low polyreactivity”. For “QVQLVESGGGLVHAGGRLRLSCAASGRIFFYYAMGWYRQAPGKERELVAAISQSGGSTYYADSVKGRFTISRDNAKNTVYLQMNSLKPEDTSVYYCNAADPYYVTSAVAGDYWGQGTQVTVSS”, the “polyreactivity (PSR sort gate)” value was “low polyreactivity”. For “QVQLVESGGGLVHAGGRLRLSCTASGGIFRYYAMGWYRQAPGKERELVAGISRSGGSTHYADSVKGRFTISRDNAKNTVYLQMNSLKPEDTAVYYCAADTYFTKYDYWGQGTQVTVSS”, the “polyreactivity (PSR sort gate)” value was “high polyreactivity”.
